Measurements published in patent publication US20220288226A1 (ENOSI LIFE SCIENCES, published 2022).

T1: TNFR1 on cells (human, UniProt P19438 30-455)
T1 sequence: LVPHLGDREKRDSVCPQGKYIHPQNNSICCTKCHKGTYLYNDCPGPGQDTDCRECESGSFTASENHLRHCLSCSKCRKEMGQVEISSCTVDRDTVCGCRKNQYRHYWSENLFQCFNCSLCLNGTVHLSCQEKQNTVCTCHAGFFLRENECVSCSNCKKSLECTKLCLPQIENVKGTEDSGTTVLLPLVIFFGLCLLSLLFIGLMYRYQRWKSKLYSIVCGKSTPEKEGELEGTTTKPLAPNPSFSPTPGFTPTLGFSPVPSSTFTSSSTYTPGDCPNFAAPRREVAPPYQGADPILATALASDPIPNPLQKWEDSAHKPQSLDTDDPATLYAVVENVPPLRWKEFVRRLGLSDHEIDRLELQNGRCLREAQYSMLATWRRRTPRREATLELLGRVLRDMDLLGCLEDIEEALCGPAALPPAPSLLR

T2: extracellular domain of TNFR-1 (human, UniProt P19438 30-211)
T2 construct: The construct limits, tag, supplier and species are not restated there; also called TNFR1 extracellular domain; tumor necrosis factor receptor-1 (TNFR1)
T2 sequence: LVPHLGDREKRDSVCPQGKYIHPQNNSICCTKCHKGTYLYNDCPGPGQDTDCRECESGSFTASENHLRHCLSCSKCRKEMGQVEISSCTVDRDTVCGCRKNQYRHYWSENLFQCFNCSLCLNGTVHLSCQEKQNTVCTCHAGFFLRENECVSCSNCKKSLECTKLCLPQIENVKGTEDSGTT

B1: Vhh-2 (VHH, not shown: small tags and cut ends)
VHH: EVQLLESGGGLVQPGGSLRLSCAASGFTFSQYRMHWVRQAPGKSLEWVSSIDTRGSSTYYADPVKGRFTISRDNSKNTLYLQMNSLRAEDTAVYYCAKAVTMFSPFFDYWGQGTLV
notes: it is placed last only by convention; also called Recombinant human anti-TNFRSF1A single domain antibody
B2: Vhh-4 (VHH)
VHH: EVQLLESGGGLVQPGGSLRLSCAASGFTFAHETMVWVRQAPGKGLEWVSHIPPDGQDPFYADSVKGRFTISRDNSKNTLYLQMNSLRAEDTAVYHCALLPKRGPWFDYWGQGTLVTVSS
notes: also called DOM1h-131-206

Key:
TNFR1 on cells = molecular target: T1, TNFR1 on cells; experiment: cell-based or functional assay
[1] = molecular target: T2, extracellular domain of TNFR-1; experiment: SPR (Biacore), Vhh on TNFR1 extracellular domain
Procedure: (§1) Each of Vhh 1-4 subsequently was tested in binding studies using the surface plasmon resonance (SPR) method (Sciences GL. Biacore Assay Handbook. General Electric Company (2012); and Richter et al. (2019) MAbs 11:166-177). Competition assays of Vhh inhibition of TNF-a binding to TNFR1 extracellular domain also were performed as described in Richter et al. (2019).

[2] = molecular target: T2, extracellular domain of TNFR-1; experiment: competition assay, Vhh inhibition of TNF binding to TNFR1; competitor TNF-a
Procedure: as §1

Row | TNF Dependent Bioassay (IC50): VCAM (TNFR1 on cells) | Kd [1] | IC50 [2] | Binder
1 | 3 nM | 1000 nM | – | B1
2 | 0.3 nM | 0.00066 nM | ~1 nM | B2
